We go through 2 substances from patent publication US20220185871A1.

This assay has as its target Man9-V3 glycopeptide. The assay is described as follows: BLI (Octet Red96), biotinylated Man9-V3 on streptavidin sensors, antibody in solution, bivalent avidity model. For orientation: BLI is a label-free optical method that tracks binding on a fibre tip over time.

Substance DH270.1 (antibody) gave a Kd of 0.331 µM.
Substance DH270.6 (antibody) displayed a Kd of 0.188 µM.
